The target of the experiment is trypsin from bovine pancreas (bovine). The experiment is described as follows: enzyme inhibition kinetics.

pKi: −log10 of the molar value.

trypsin from bovine pancreas (bovine), sequence (P00760 24-246): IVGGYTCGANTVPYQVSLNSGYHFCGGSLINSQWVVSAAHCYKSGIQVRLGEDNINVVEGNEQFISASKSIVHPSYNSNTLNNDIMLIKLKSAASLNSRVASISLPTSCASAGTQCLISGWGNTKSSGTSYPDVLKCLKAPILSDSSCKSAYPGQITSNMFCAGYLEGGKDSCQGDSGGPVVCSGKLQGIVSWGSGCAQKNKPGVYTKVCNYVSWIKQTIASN

By pKi is commonly meant the Ki on a negative log10 scale, so that one unit is a factor of ten. Read a low pKi as a large Ki. Consider “ovomucoid trypsin inhibitor (from UniProt P01005 25-210) (natural protein)”, for which the pKi was 4.24.

Values taken from PMC3182822.
